Measured values as given in paper PMC8041169.

Target: recombinant truncated LvAPN1-His (N-terminal region of Litopenaeus vannamei aminopeptidase N1 with the Cry toxin binding region and the active site of the peptidase-M1 domain) (Litopenaeus vannamei)
Assay: ELISA; 20 ug purified truncated rLvAPN1 coated overnight in 0.1 M carbonate/bicarbonate buffer pH 9.6 at 4 C; blocked with 0.5% BSA in TBS pH 8.0; rPirA^vp, rPirB^vp or rGST at 0-10 uM in TBS incubated at 4 C overnight; detected with rabbit anti-PirA^vp or anti-PirB^vp polyclonal antibody and HRP-conjugated secondary antibody, A450; one-site binding model; apparent Kd

Row | Substance | Kd
1 | recombinant PirA^vp-His toxin subunit of Vibrio parahaemolyticus (VP_AHPND) (natural protein) | 3.2 µM
2 | recombinant PirB^vp-GST toxin subunit of Vibrio parahaemolyticus (VP_AHPND) (natural protein) | 0.5 µM
